This series concerns the molecule itself. Briefly: cryo-EM structure; 2D class averages of endophilin-only coat on lipid tubules: 11 µM protein, DOPS liposomes (0.5 g/l), GTPase buffer, 30 min room temperature.

B1: Rat endophilinA1 (natural protein, UniProt O35179 1-352, looked up)
chain: MSVAGLKKQFHKATQKVSEKVGGAEGTKLDDDFKEMERKVDVTSRAVMEIMTKTIEYLQPNPASRAKLSMINTMSKIRGQEKGPGYPQAEALLAEAMLKFGRELGDDCNFGPALGEVGEAMRELSEVKDSLDMEVKQNFIDPLQNLHDKDLREIQHHLKKLEGRRLDFDYKKKRQGKIPDEELRQALEKFDESKEIAESSMFNLLEMDIEQVSQLSALVQAQLEYHKQAVQILQQVTVRLEERIRQASSQPRREYQPKPRMSLEFATGDGTQPNGGLSHTGTPKPAGVQMDQPCCRALYDFEPENEGELGFKEGDIITLTNQIDENWYEGMLHGQSGFFPINYVEILVALPH
notes: Rat endophilinA1, wild type and full-length; source: E. coli, pGEX-6P vector, purified (glutathione Sepharose, PreScission cleavage)
As to B1, the binding result is “binds”.

Source of the values: paper PMC5663480, “Structural inhibition of dynamin-mediated membrane fission by endophilin” (eLife, 2017).
